Experimental data published in patent publication US20250002610A1 (Genmab, published 2025).
Substitutions are numbered along the chain they refer to.

Tests used:
[1] = molecular target: T1, human DR4 with death domain deletion on ExpiCHO-S cells (human); assay: flow cytometry, ExpiCHO-S cells expressing human DR4, n = 2
Protocol: (§1) Binding of BisG1-FAPα-FERL/DR4-FERR, BisG1-DR4-FEAL/b12-FEAR and IgG1-DR4-FERR to DR4 of various species commonly used for nonclinical toxicology studies was assessed by flow cytometry using ExpiCHO-S cells transiently expressing DR4 from different animal species. In contrast to other species, rodents only express one DR which has highest homology with human DR5. Therefore, ExpiCHO-S cells transiently expressing rat and mouse DR protein were used instead. All DR constructs lack the intracellular DD to avoid apoptosis of transfected cells upon DR(4) activation. IgG1-b12 was used as negative control.

[2] = molecular target: T1, human DR4 with death domain deletion on …; assay: flow cytometry, ExpiCHO-S cells expressing human DR4, n = 1
Protocol: as §1

[3] = molecular target: T2, human FAPα (Fibroblast activation protein alpha), cell surface expressed (human, UniProt Q12884 1-760); assay: flow cytometry, CAFs, n = 2
T2 construct: Endogenous on human lung fibroblasts and CAFs
T2 sequence: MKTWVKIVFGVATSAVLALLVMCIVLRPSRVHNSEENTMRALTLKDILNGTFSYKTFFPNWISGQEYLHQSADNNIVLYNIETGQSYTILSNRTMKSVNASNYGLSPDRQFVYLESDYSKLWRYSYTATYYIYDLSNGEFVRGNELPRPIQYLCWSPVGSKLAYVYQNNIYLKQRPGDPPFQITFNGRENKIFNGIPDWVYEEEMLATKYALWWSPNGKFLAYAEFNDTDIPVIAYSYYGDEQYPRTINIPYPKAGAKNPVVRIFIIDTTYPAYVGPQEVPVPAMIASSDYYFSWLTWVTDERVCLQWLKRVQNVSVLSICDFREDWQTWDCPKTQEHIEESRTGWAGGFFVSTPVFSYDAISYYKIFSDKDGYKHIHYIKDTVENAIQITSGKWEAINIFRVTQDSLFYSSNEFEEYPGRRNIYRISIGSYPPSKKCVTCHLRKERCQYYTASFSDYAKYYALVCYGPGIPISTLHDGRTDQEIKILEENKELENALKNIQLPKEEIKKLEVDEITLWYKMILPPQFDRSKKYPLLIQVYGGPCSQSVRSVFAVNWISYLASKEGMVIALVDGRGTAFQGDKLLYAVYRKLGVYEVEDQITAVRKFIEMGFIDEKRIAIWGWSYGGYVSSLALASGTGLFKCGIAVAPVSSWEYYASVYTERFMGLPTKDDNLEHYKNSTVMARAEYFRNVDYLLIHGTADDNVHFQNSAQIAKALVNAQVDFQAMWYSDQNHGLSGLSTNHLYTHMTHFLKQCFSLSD
Protocol: Binding of bispecific or monoclonal antibodies carrying the anti-FAPα arm derived from IgG1-FAPα-FERL (BisG1-FAPα-FERL/DR4-FERR, BisG1-FAPα-FERL/b12-FERR, and IgG1-FAPα-FERL) to cell surface expressed human FAPα was analyzed by flow cytometry using human lung fibroblasts and CAFs, which endogenously express FAPα. BisG1-b12-FERL/b12-FERR was used as negative control.
Human lung fibroblasts and CAFs (50,000 cells/well) were seeded in 96-Well round bottom plates (Greiner Bio-one, Cat #650101). Antibody dilutions were prepared using fluorescence-activated cell sorting (FACS) buffer, consisting of phosphate buffer saline (PBS, Lonza, Cat #BE17-517Q)+1% Bovine Serum Albumin (BSA, Roche, Cat #10735086001)+0.02% Sodium Azide (Bio-World, Cat #41920044-3). Plates were centrifuged, supernatant was removed, cells were resuspended in 50 μL of human Fc Block (BD, Cat #564220, diluted 1:100 in FACS buffer) and 50 μL of viability stain TO-PRO-3 Iodide (Thermo Fisher, Cat #T3605, diluted 1: 25,000 in FACS buffer), and incubated for 15 min at 4° C. Plates were washed three times with FACS buffer. […] Antibody binding to viable cells (TO-PRO-3 negative) was analyzed by flow cytometry on a FACSCelesta™ (BD biosciences) and data were processed using FlowJo_v10.8.1 (FlowJo LLC). Geomean fluorescence intensity, gMFI, was determined and visualized using GraphPad Prism.

[4] = molecular target: T3, human DR4 (Death Receptor 4), cell surface expressed on human tumor cell lines (human, UniProt O00220 24-468); assay: flow cytometry, HCT-15 cells, average ± SEM
T3 construct: also called TNFRSF10A; TRAIL-R1
T3 sequence: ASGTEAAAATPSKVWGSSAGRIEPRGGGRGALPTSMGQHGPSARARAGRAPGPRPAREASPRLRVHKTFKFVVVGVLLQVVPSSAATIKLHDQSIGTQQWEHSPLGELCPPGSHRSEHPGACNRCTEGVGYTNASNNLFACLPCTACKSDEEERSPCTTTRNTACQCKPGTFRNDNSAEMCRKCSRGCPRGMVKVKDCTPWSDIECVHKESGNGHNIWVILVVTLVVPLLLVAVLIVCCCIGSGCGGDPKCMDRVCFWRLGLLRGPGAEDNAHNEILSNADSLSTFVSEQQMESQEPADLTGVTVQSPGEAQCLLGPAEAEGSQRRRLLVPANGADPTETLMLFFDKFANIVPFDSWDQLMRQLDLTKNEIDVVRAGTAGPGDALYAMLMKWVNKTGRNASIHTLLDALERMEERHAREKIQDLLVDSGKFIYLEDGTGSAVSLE

B1: IgG1-DR4-FERR (antibody, V domains shown)
VH: QVQLQESGPGLVKPSGTLSLTCAVSGGSISSYSWWSWIRQPPGKGLEWIGELYHSGSTNYNPSLKSRVTISVDKSKNQFSLKLRSVTAADTAVYYCVRGVATIDYWGQGTLVTVSS
VL: QSALTQPPSASGSPGQSVTISCTGTSSDVGGYNFVSWYQQDPGKAPKLLIYEVTKRPSGVPDRFSGSKSGNTASLTVSGLQAEDEADYYCSSYAGSNNVMFGGGTKLTVLG
notes: Bivalent monoclonal IgG1 lambda
[1]
  EC50: 0.06 µg/mL
[2]
  EC50: 0.33 µg/mL

B2: BisG1-FAPα-FERL/DR4-FERR (bispecific antibody, human IgG1, kappa, lambda)
heavy 1: EVQLLESGGGLVQPGGSPRLSCEASGFTFSSYALSWVRQAPGKGLEWVSAISGSGGGRYYADSVKGRFTISRDNSKNTLFLQMNSLRAEDTAVYYCAKEGYSSSGTYWDHWGQGTLVTVSSASTKGPSVFPLAPSSKSTSGGTAALGCLVKDYFPEPVTVSWNSGALTSGVHTFPAVLQSSGLYSLSSVVTVPSSSLGTQTYICNVNHKPSNTKVDKRVEPKSCDKTHTCPPCPAPEFERGPSVFLFPPKPKDTLMISRTPEVTCVVVDVSHEDPEVKFNWYVDGVEVHNAKTKPREEQYNSTYRVVSVLTVLHQDWLNGKEYKCKVSNKALPAPIEKTISKAKGQPREPQVYTLPPSREEMTKNQVSLTCLVKGFYPSDIAVEWESNGQPENNYKTTPPVLDSDGSFLLYSKLTVDKSRWQQGNVFSCSVMHEALHNHYTQKSLSLSPG
light 1: AIQMTQSPSSVSASVGDRVTITCRASQGVSSWLAWYQQKPGRAPKLLIYVASTLQSGVPSRFSGSGSGTDFTLTINSLQPEDFATYYCQQANSFPPTFGQGTRLEMKRTVAAPSVFIFPPSDEQLKSGTASVVCLLNNFYPREAKVQWKVDNALQSGNSQESVTEQDSKDSTYSLSSTLTLSKADYEKHKVYACEVTHQGLSSPVTKSFNRGEC
heavy 2: QVQLQESGPGLVKPSGTLSLTCAVSGGSISSYSWWSWIRQPPGKGLEWIGELYHSGSTNYNPSLKSRVTISVDKSKNQFSLKLRSVTAADTAVYYCVRGVATIDYWGQGTLVTVSSASTKGPSVFPLAPSSKSTSGGTAALGCLVKDYFPEPVTVSWNSGALTSGVHTFPAVLQSSGLYSLSSVVTVPSSSLGTQTYICNVNHKPSNTKVDKRVEPKSCDKTHTCPPCPAPEFERGPSVFLFPPKPKDTLMISRTPEVTCVVVDVSHEDPEVKFNWYVDGVEVHNAKTKPREEQYNSTYRVVSVLTVLHQDWLNGKEYKCKVSNKALPAPIEKTISKAKGQPREPQVYTLPPSREEMTKNQVSLTCLVKGFYPSDIAVEWESNGQPENNYKTTPPVLDSDGSFFLYSRLTVDKSRWQQGNVFSCSVMHEALHNHYTQKSLSLSPG
light 2: QSALTQPPSASGSPGQSVTISCTGTSSDVGGYNFVSWYQQDPGKAPKLLIYEVTKRPSGVPDRFSGSKSGNTASLTVSGLQAEDEADYYCSSYAGSNNVMFGGGTKLTVLGQPKAAPSVTLFPPSSEELQANKATLVCLISDFYPGAVTVAWKADSSPVKAGVETTTPSKQSNNKYAASSYLSLTPEQWKSHRSYSCQVTHEGSTVEKTVAPTECS
notes: Human IgG1 bispecific made by controlled Fab-arm exchange of IgG1-FAPα-FERL and IgG1-DR4-FERR; monovalent for FAPα and for DR4; also called GEN1057
[1]
  EC50: 0.38 µg/mL
[3]
  EC50: 0.232 µg/mL
[4]
  EC50: 0.65 µg/mL
[2]
  EC50: 1 µg/mL

B3: BisG1-b12-FERL/DR4-FERR (bispecific antibody, human IgG1, kappa, lambda)
heavy 1: QVQLVQSGAEVKKPGASVKVSCQASGYRFSNFVIHWVRQAPGQRFEWMGWINPYNGNKEFSAKFQDRVTFTADTSANTAYMELRSLRSADTAVYYCARVGPYSWDDSPQDNYYMDVWGKGTTVIVSSASTKGPSVFPLAPSSKSTSGGTAALGCLVKDYFPEPVTVSWNSGALTSGVHTFPAVLQSSGLYSLSSVVTVPSSSLGTQTYICNVNHKPSNTKVDKRVEPKSCDKTHTCPPCPAPEFERGPSVFLFPPKPKDTLMISRTPEVTCVVVDVSHEDPEVKFNWYVDGVEVHNAKTKPREEQYNSTYRVVSVLTVLHQDWLNGKEYKCKVSNKALPAPIEKTISKAKGQPREPQVYTLPPSREEMTKNQVSLTCLVKGFYPSDIAVEWESNGQPENNYKTTPPVLDSDGSFLLYSKLTVDKSRWQQGNVFSCSVMHEALHNHYTQKSLSLSPG
light 1: EIVLTQSPGTLSLSPGERATFSCRSSHSIRSRRVAWYQHKPGQAPRLVIHGVSNRASGISDRFSGSGSGTDFTLTITRVEPEDFALYYCQVYGASSYTFGQGTKLERKRTVAAPSVFIFPPSDEQLKSGTASVVCLLNNFYPREAKVQWKVDNALQSGNSQESVTEQDSKDSTYSLSSTLTLSKADYEKHKVYACEVTHQGLSSPVTKSFNRGEC
heavy 2: B2 heavy 2
light 2: B2 light 2
notes: Fab-arm exchange of IgG1-b12-FERL and IgG1-DR4-FERR; also called bsIgG1-ctrl-FERLxDR4-FERR
[4]
  EC50: 0.56 µg/mL

B4: BisG1-FAPα-FERL/b12-FERR (bispecific antibody, human IgG1, kappa)
heavy 1: B2 heavy 1
light 1: B2 light 1
heavy 2: B3 heavy 1 with L415F, K419R
light 2: B3 light 1
[3]
  EC50: 0.231 µg/mL
